Measured values from patent US10709762B2, “Use of M-CSF for preventing or treating myeloid cytopenia and related complications” (priority 2013, dated 2020).

Legend:
[1] = test system: PU.1 expression in sorted HSC; assay: Quantitative RT-PCR of PU.1 expression in sorted HSC in culture; type: cell-based, mice; conditions: 16 h in culture with cytokine, 100 ng/ml
Procedure: (§1) CD150+CD34− KSLF HSC or CD150+CD34− CD48− KSLF HSC (single cells) were sorted into S-clone SF-03 medium (Sanko Jyunyaku) with 10% FBS supplemented with 100 U/ml penicillin and […] streptomycin (both Invitrogen) and cultivated in uncoated U-Shape 96 well plates (Greiner) in 100 μl SCM, 20 ng/ml rSCF, 50 ng/ml rTPO+/−100 ng/ml rM-CSF or 100 ng/ml rGM-CSF or 100 ng/ml rG-CSF. All cytokines were murine and from PeproTech. Cell viability was analyzed by AnnexinV and Propidium iodide FACS staining^35.
Total RNA was isolated and reverse transcribed with μMACS™ ONE-STEP T7 template kit (Miltenyi Biotec) and analysed by quantitative real-time PCR using TAQMAN® Universal PCR Master Mix and a 7500 Fast Real Time PCR System sequence detection system (both Applied Biosystem), following the manufacturers' instructions.

CD150hi HSC = assay: In vitro culture of HSC, proliferation and survival; type: cell-based, mice; conditions: culture in the presence of M-CSF
Procedure: as §1

[2] = test system: PU.1 promoter activation in single PU.1 negative HSC; assay: Time-lapse video imaging of GFP-negative sorted HSC from PU.1-GFP mice; type: cell-based
Procedure: Wherever possible our video microscopy protocols followed proposed guidelines^24. In detail, FACS sorted CD150+ CD34− KSLF HCS from wt C57/Bl6 or GFP-negative CD150+ CD34− KSLF HSC from PU.1-GFP reporter mouse^31 bone marrow were suspended in SCM supplemented with 100 U/ml penicillin and […] streptomycin, 20 ng/ml rSCF, 50 ng/ml rTPO+/−100 ng/ml rM-CSF and plated in Ibidi μ-slidesVI(0.4) (Biovalley SA, France). Time-lapse microscopy was performed using a Cell Observer system (Carl Zeiss Microscopy GmbH, Germany) at 37° C. and 5% CO2. Images were acquired every 10 minutes using 10× (A-plan 10×/0.45 Ph1) or 40× (Plan-Apochromat 40×/0.95 Korr M27) objectives in brightfield and fluorescence (GFP filters: EX BP 470/40; at 350 ms) with a COOLSNAP™ HQ2 monochrome camera (Photometrics) with a 2×2 binning and a metal halide 120W source for fluorescence illumination. For image analysis a matrix of 4×4 images was acquired for each time point. Images were stitched with AxioVision software (Carl Zeiss Microscopy GmbH, Germany) and processed with Fiji software^36 using a slight rolling ball subtraction of background and 1 pixel Gaussian blur. For background subtraction of brightfield images, the median of z-projection was subtracted from the time-lapse stack. Single cell tracking was performed with basic commands of ImageJ^37 and Fiji^36 software and with specific tracking plugin MTrackJ^38 in manual mode. Each cell was tracked manually frame-by-frame in the bright field channel and cross-controlled by two microscope specialists. Cells with non-standard morphology or size were rejected. The fluorescence signal was measured as the difference of maximum minus minimum intensity within a defined region of interest (ROI) around each cell. Cell properties and behaviour (cell division, cell death, position, fluorescence increase) were manually documented to build cumulated curves. R^39 and Excel (Microsoft Corporation) software was used to manage data and build graphics.

HSC [3] = assay: Transplantation of M-CSF primed HSC into sub-lethally irradiated recipients, analysis of progeny; type: in vivo, mice
Procedure: (§2) CD45.1 and C57Bl/6 mice were obtained from Charles River. PU.1-GFP^31 M-CSFR^−/−27 and PU.1^fl/fl 32 mice have been described. Age- and sex-matched CD45.1 recipients that were reconstituted as described^3 with CD45.2 foetal liver from wt or M-CSFR^−/− embryos^27 and PU.1^fl/fl or PU.1^fl/fl::MxCre bone marrow, were used to isolate CD150+CD34− KSLF HSC not earlier than 8 weeks after reconstitution. For in vivo injections the 10 μg/mouse M-CSF, 5 mg/kg LPS (055:B5 E. coli) or sorted cells were injected in 100 μl of PBS into the retro-orbital sinus. For HSC transplantation 400 CD150+CD34− KSLF HSC were sorted from CD45.2 mice and mixed with 100.000 Lin^+ Sca^− CD45.1 carrier cells prior to injection into sub-lethally irradiated (4.5 Gy) CD45.1 recipient mice. For competitive transplantations, 1300 CD150+, CD34-KSLF HSC were isolated 16 h after control or 10 μg M-CSF injection from actin-GFP CD45.2 mice^33, mixed with equal numbers of CD45.2 competitor HSC and injected with 300.000 Lin^+ Sca^− RC-lysed CD45.1 carrier cells into sub-lethally irradiated (4.5 Gy) CD45.1 recipients. Contribution to platelets, CD19+ B-cells and CD11b+ myeloid cells was analysed after 4 and 6 weeks in the blood from mice with at least 5% GFP+ donor cells. For PU.1 deletion PU.1^fl/fl or PU.1^fl/fl::MxCre reconstituted mice were intra-peritoneally injected with 5 μg/g Polyinosinic:polycytidylic acid 7 and 9 days prior to control (PBS) or 10 μg M-CSF injection. All mouse experiments were performed under specific pathogen-free conditions in accordance with institutional guidelines.
For FACS sorting and analysis we used described staining protocols^3 and published stem and progenitor cell definitions^34, FACSCANTO™ BD™ LSRII and FACSARIA™ III equipment and DIVA™ software (BECTON-DICKINSON), analysing only populations with at least 200 events. For HSC analysis we used antibodies anti-CD34-FITC (clone RAM34, BD BIOSCIENCES), anti-CD135-PE (clone A2F10.1, BD BIOSCIENCES), anti-CD150-Pe-Cy7 (clone TC15-12F12.2, BIOLEGEND), anti-CD117-APC H7 (clone 2B8, BD BIOSCIENCES), anti-Sca-1-Pe-Cy5 (clone D7, BIOLEGEND), anti-CD48-APC (clone HM48-1, BIOLEGEND). Diverging from this or in addition we used antibodies anti-CD34 Alexa 700 (clone RAM34, BD BIOSCIENCES), anti-CD16/32 PE (clone 2.4G2, BD BIOSCIENCES), anti-CD11b PE-CF594 (clone M1/70, BD BIOSCIENCES), anti-CD19PE-Cy7 (clone 1D3, BD biosciences), anti CD45.2 APC (clone 104, BD BIOSCIENCES) and anti CD45.1 Pacific Blue (clone A20, BD BIOSCIENCES) for progenitor and blood cell analysis. LIVE/DEAD Fixable Violet Dead cell dye (Invitrogen) was used as viability marker.

HSC [4] = assay: Competitive transplantation of M-CSF primed HSC, blood cell contribution; type: in vivo
Procedure: as §2

B1: M-CSF: recombinant murine macrophage colony stimulating factor from PeproTech, used in Example 1 (protein, UniProt P07141 33-552, looked up)
Macrophage colony-stimulating …: KEVSEHCSHMIGNGHLKVLQQLIDSQMETSCQIAFEFVDQEQLDDPVCYLKKAFFLVQDIIDETMRFKDNTPNANATERLQELSNNLNSCFTKDYEEQNKACVRTFHETPLQLLEKIKNFFNETKNLLEKDWNIFTKNCNNSFAKCSSRDVVTKPDCNCLYPKATPSSDPASASPHQPPAPSMAPLAGLAWDDSQRTEGSSLLPSELPLRIEDPGSAKQRPPRSTCQTLESTEQPNHGDRLTEDSQPHPSAGGPVPGVEDILESSLGTNWVLEEASGEASEGFLTQEAKFSPSTPVGGSIQAETDRPRALSASPFPKSTEDQKPVDITDRPLTEVNPMRPIGQTQNNTPEKTDGTSTLREDHQEPGSPHIATPNPQRVSNSATPVAQLLLPKSHSWGIVLPLGELEGKRSTRDRRSPAELEGGSASEGAARPVARFNSIPLTDTGHVEQHEGSSDPQIPESVFHLLVPGIILVLLTVGGLLFYKWKWRSHRDPQTLDSSVGRPEDSSLTQDEDRQVELPV
**Q.** With B1 as the molecule, how does the “PU.1 expression in FACS purified HSC” value [1] read?
**A.** The value was “increased PU.1 expression”.

**Q.** What about the “proliferation or survival advantage of cultured CD150hi HSC” value (CD150hi HSC) of the same molecule?
**A.** The value was “no proliferation or survival advantage”.

**Q.** What about the “proliferation or survival advantage of cultured HSC (video-microscopy)” value ([2]; culture in M-CSF) of the same molecule?
**A.** The value was “no proliferation or survival advantage”.

**Q.** And the “PU.1+ cells developed versus control conditions” value ([2]; end of the 24 h observation period (18 to 42 hours of culture))?
**A.** The value was “over two-fold more PU.1+ cells”.

**Q.** What about the “commitment events of PU.1 activation occurred earlier” value ([2]; in the presence of M-CSF versus control) of the same molecule?
**A.** The value was 8 h.

**Q.** What about the “rate of PU.1 activation events” value ([2]; over the whole observation period) of the same molecule?
**A.** Its value is “higher rate”.

**Q.** What about the “myeloid differentiation preference of M-CSF primed HSC after deletion of PU.1” value (HSC [3]; HSC with deleted PU.1 alleles, spleen 2 weeks) of the same molecule?
**A.** The value was “abolished”.

**Q.** What about the “ratio of GMP to MEP progenitors in the spleen” value (HSC [3]; in vivo M-CSF primed CD45.2 HSC, after 2 weeks) of the same molecule?
**A.** Its value is “increased ratio”.

**Q.** And the “myeloid to lymphoid cell ratio in peripheral blood” value (HSC [3]; in vivo M-CSF primed HSC, after 4 weeks)?
**A.** Its value is “increased myeloid to lymphoid cell ratio”.

**Q.** What about the “ratio of GMP to MEP developing from PU.1+ HSC versus PU.1- HSC” value (HSC [3]; in vivo priming with M-CSF, spleen 2 weeks after transplantation) of the same molecule?
**A.** The value was “higher ratio”.

**Q.** What about the long-term multi-lineage contribution (HSC [4]) of the same molecule?
**A.** The long-term multi-lineage contribution was “did not compromise”.

**Q.** And the “myeloid contribution compared to platelet and lymphoid contribution in the blood” value (HSC [4]; after 6 weeks)?
**A.** The value was “re-equilibrated”.

**Q.** And the “myeloid contribution compared to platelet and lymphoid contribution in the blood” value (HSC [4]; at 4 weeks)?
**A.** The value was “myeloid advantage”.
